In doi:10.1101/303123 (bioRxiv, 2018):

T1: XcpX (29-313), soluble form of the minor pseudopilin XcpX (P. aeruginosa, UniProt Q00518 29-313)
T1 sequence (looked up): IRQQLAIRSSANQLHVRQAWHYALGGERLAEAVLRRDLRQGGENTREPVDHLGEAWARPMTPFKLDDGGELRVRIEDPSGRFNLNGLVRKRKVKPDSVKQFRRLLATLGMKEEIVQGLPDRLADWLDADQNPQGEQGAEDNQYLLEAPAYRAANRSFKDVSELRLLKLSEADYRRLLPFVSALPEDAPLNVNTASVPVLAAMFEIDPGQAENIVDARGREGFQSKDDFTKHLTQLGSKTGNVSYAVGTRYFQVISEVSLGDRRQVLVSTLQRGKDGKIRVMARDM

T2: XcpVW binary complex (XcpV (28-129) with XcpW (28-203)) (P. aeruginosa, UniProt Q00516 28-129; Q00517 28-203)
T2 sequence (looked up) 1: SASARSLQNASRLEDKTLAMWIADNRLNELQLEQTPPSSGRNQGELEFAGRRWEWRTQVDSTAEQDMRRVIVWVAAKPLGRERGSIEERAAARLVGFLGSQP
T2 sequence (looked up) 2: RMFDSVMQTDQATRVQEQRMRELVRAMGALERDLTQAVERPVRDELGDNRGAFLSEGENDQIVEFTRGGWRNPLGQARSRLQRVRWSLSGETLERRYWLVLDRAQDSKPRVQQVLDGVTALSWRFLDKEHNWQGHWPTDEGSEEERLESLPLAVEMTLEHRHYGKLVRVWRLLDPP

B1: XcpV (28-129), soluble form of the minor pseudopilin XcpV (domain or fragment, P. aeruginosa, UniProt Q00516 28-129, looked up)
chain: T2 sequence (looked up) 1
B2: XcpU (29-172), soluble form of the minor pseudopilin XcpU (domain or fragment, P. aeruginosa, UniProt Q00515 29-172, looked up)
chain: STGFASTSRELDSEAERLAGLIGVLTDEAVLDNREYGLRLERDAYQVLRYDEAKARWLPVARDSHRLPEWAELTFELDGQPLVLAGSKGEKEQKKGTDQPQLLILSSGELSPFRLRLAERGPEGRALSLSSDGFRLPRVEVARR

Tests used:
[1] = target: T1, XcpX (29-313), soluble form of the …; assay: crystal structure
[2] = target: T2, XcpVW binary complex (XcpV (28-129) …); assay: SEC + AUC

Binder | binding result [1] | binding result [2]
B1 | binds | 
B2 |  | binds
